From paper PMC12170907 (Cell Discovery, 2025) come the findings set out here.

The target in test [1] is T1, Superfolder-GFP-tagged M-HBsAg (serotype ayw, genotype D3) (Hepatitis B virus genotype D3, serotype …, UniProt P03138).
T1 construct: source: FreeStyle 293F cells, BacMam virus; purified (ELISA); membranes solubilised with 1% LMNG and 0.1% CHS, supernatant (pull-down); not shown: superfolder GFP, N-terminal, kept
The test is described as follows: ELISA. The conditions noted are these: both partners purified.

The target of test [2] is T1, Superfolder-GFP-tagged M-HBsAg …. In words: pull-down. Conditions: one partner purified.

B1: 3× HA-tagged FabHBC (Fab, V domains shown)
VH: ELQLVESGGGWVQPGGSQRLSCAASGRIFRSFYMSWVRQAPGKGLEWVATINQDGSEKLYVDSVKGRFTISRDNAKNSLFLQMNNLRVEDTAVYYCAAWSGNSGGMDVWGQGTTVSVSS
VL: SYELTQPPSVSVSPGQTVSIPCSGDKLGNKNVCWFQHKPGQSPVLVIYEVKYRPSGIPERFSGSNSGNTATLTISGTQAMDEAAYFCQTWDSTTVVFGGGTRLTVL
notes: also called NAbHBC; parental antibody of VIR-3434; source: FreeStyle 293F, co-transfected heavy and light chain, purified from the supernatant (Ni-NTA, SP HP); not shown: His tag (from the Ni-NTA purification); 3× HA, C-terminal, kept
B1: the binding result in test [1] was “binds”.

B2: strep-tagged Fab_(GC1102) (Fab, V domains shown)
VH: EVQLVESGGGLVKPGGSLRLSCSASGFSLTKYKMTWVRQAPGKGLEWVSSISSTSRDIDYADSVKGRFTISRDNAKNSLFLQMSSLRVDDTAVYYCTRDGWLWGWDVRSNYYYNALDVWGQGTTVTVSS
VL: DIVVTQSPSSLSASVGDRVTITCRASQGIYNSIAWYQQKPGKAPKLLLYSTSTLLSGVPSRFSGSGSGTDYTLTITNLQPEDFATYYCQQYFVTPETFGQGTKLEIK
notes: also called strep-HA-tagged NAb_(GC1102); Fab_(GC1102) bait
For B2, in test [2], the binding result is “binds”.

B3: Myc-tagged Fab_(GC1102) (Fab, V domains shown)
VH: B2 VH
VL: B2 VL
notes: also called NAb_(GC1102); GC1102 prey
B3: the binding result in test [2] is on record as “binds”.

B4: strep-tagged Fab_(H006) (Fab, V domains shown)
VH: QMRLVESGGGVVRPGGSLRLSCAGSGFRFTGYGIHWVRQAPGKGLEWLAYISNDGSKKYHTDSVKGRFTVSRDNAKNTAYLQMNSLRVEETAVYFCAKDGYLSAARGYGMDVWGQGIPVTVSP
VL: SYVLTQPPSVSVAPGQTATITCGGNNIGGKSVHWFQQKPGQAPLLIISDDNDRPSGIPERVSGSNSGNTATLTISRVEAGDEADYYCQVWDTTSDQLVFGGGTMLTVL
Turning to B4, the binding result in test [2] was “binds”.

B5: Myc-tagged scFv_(H006) (scFv, V domains shown)
VH: B4 VH
VL: B4 VL
B5: the binding result in test [2] is “binds”.
